The target of this test is T1, RVFV glycoprotein Gn head domain (154–469 aa) (Rift Valley fever virus), P21401.
T1 chain: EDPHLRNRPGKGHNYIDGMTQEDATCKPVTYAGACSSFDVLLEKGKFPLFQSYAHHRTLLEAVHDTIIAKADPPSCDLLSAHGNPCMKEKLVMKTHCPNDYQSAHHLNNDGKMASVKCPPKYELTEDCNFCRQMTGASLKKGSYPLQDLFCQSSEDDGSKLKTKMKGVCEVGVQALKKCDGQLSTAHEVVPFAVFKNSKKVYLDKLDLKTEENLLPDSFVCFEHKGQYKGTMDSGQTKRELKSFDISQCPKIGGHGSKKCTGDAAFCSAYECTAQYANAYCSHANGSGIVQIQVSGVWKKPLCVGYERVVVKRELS
Kind of test: BLI. To be noted: modification not given.

In general, Kd refers to the constant that tells how readily two partners part at equilibrium. A high value points to weaker binding. With HVCLPSQFKCTNTNRCIPGIFRCNGQDNCGDGEDERDCPE [23-Fc], the Kd stood at 260 nM.

For the origin of these results see article PMC12839305.
